Source: patent US20220098310A1 (Alexion, published 2022)

T1: recombinant human ALK2 extracellular domain (Creative Biomart catalog number ACVR1-01H) (human, UniProt Q04771 21-123)
T1 construct: also called ALK2 ECD; ACVR1 ECD
T1 sequence: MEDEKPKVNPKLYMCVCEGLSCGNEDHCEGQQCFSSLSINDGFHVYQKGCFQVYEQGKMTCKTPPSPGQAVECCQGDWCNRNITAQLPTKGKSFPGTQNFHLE

T2: mouse ALK2 expressed on the cell surface of wild-type C2C12 mouse myoblast cells (mouse, UniProt P37172 21-509)
T2 construct: Endogenous ALK2 of C2C12 cells (ATCC CRL-1772); also called murine ALK2; ALK2 on C2C12 cells
T2 sequence: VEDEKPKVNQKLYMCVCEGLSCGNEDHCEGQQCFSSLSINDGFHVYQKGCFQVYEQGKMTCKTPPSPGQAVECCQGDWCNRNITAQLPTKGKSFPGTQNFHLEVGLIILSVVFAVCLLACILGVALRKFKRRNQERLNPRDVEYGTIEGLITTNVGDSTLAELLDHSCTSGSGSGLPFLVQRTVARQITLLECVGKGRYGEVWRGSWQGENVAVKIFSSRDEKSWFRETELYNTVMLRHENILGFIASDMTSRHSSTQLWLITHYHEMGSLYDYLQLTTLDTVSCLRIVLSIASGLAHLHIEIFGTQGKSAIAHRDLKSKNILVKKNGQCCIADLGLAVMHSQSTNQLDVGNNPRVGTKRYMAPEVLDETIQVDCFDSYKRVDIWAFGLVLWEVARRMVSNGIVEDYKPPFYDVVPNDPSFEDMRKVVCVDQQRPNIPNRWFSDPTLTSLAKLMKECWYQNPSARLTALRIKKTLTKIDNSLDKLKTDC


Key:
[1] = biological target: T1, recombinant human ALK2 extracellular …; test: SPR (Biacore), antibody captured, ALK2 ECD as analyte
[2] = biological target: T1, recombinant human ALK2 extracellular …; test: SPR (Biacore), JAB0481 captured at high density on anti-mouse IgG chip, ALK2 ECD as analyte, 1:1 Langmuir fit
Description: (§1) Anti-mouse IgG was immobilized on carboxymethylated dextran BiaCore sensor chips (CMS, GE Biosciences) using a Mouse Antibody Capture Kit (GE Lifesciences product number BR100838). Two sensors were prepared; one for a “low” density of JAB0481 captured on the sensor and one with a “high” density of JAB0481 captured on the sensor. JAB0481 was diluted to 0.05 mg/ml in HEPES EDTA surfactant buffer (HBS-EP), pH 7.4 and injected onto the mouse antibody capture sensors. The volume of JAB0481 solution injected for the “low” density condition was […], and the volume that was used for the “high” density condition was 30 μL.
(§2) The ALK2 ECD was diluted in HBS-EP buffer and injected over the JAB0481 captured sensors at concentrations ranging from 2000 nM to 250 nM followed by a 300 second association period. This was followed by the injection of HBS-EP buffer and a 500 second dissociation period. Relative response deflection was plotted against time and the data were fitted to curves according to the Langmuir 1:1 binding kinetic model.
(§3) The sensorgrams for the binding of the ALK2 ECD to JAB0481 at low surface density is provided in FIG. 9, while the sensorgrams for the binding of the ALK2 ECD to JAB0481 at high surface density is provided in FIG. 10. Table 2 provides the association and dissociation rates, the dissociation constant, and Chi squared values calculated from the Biacore binding data.

[3] = biological target: T1, recombinant human ALK2 extracellular …; test: SPR (Biacore), JAB0481 captured at low density on anti-mouse IgG chip, ALK2 ECD as analyte, 1:1 Langmuir fit
Description: as §1, §2, §3

[4] = biological target: T3, ALK1-Fc (R&D Systems catalog number 370-AL-100) (human, UniProt P37023 22-118); test: bio-layer interferometry (Octet): ALK1-Fc captured on anti-human Fc tips, antibody in solution at 10 ug/mL
T3 construct: extracellular domain; Bought; also called recombinant ALK1-Fc; paralog ALK1; not shown: Fc part (loaded on anti-human Fc tips)
T3 sequence (P37023 22-118): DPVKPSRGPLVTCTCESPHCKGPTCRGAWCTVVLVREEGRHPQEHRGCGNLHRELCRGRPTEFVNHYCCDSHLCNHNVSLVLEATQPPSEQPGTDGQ
Description: ALK2-Fc (R&D Systems), ALK2-Fc (Sino Biological catalog number 10227-H03H), and ALK1-Fc (R&D Systems catalog number 370-AL-100) were diluted to 10 μg/mL in 1× kinetics buffer (ForteBio) and loaded onto anti-human Fc tips (ForteBio). After baseline equilibration in kinetics buffer (ForteBio), the sensors were applied to solutions of antibodies JAB0399, JAB0481, and BB5.1 (isotype control mAb) diluted to 10 μg/ml in kinetics buffer. The sensors were then applied to antibody-free kinetics buffer to measure antibody dissociation.

[5] = biological target: T2, mouse ALK2 expressed on the cell …; test: flow cytometry on wild-type C2C12 cells, antibody 2.45 to 5,000 ng/mL and 0 ng/mL, detected with AF488 donkey anti-mouse IgG
Description: Anti-ALK2 antibodies were evaluated for binding to ALK2 expressed on the cell surface of mouse myoblast cells (C2C12; ATCC CRL-1772) by flow cytometry. The expression of ALK2 in wild-type C2C12 cells was confirmed by RT-qPCR and by observing the binding of commercially available polyclonal anti-ALK2 antibodies to the cells by flow cytometry (data not shown). […] Loss of ALK2 expression was verified by flow cytometry and genomic sequencing (data not shown).
Wild-type and ALK2 knock-out C2C12 cells were detached from culture flasks using AssayComplete™ Cell Detachment Reagent (DiscoverX) which was used to maintain intact cell membrane morphology. Cells were washed twice with PBS and then re-suspended in PBS. […] Cells were washed once in FACS buffer (5% bovine serum albumin, […] in PBS) re-suspended in blocking buffer (6% BSA in PBS) and incubated on wet ice for 15 minutes. The binding of the anti-ALK2 antibodies to cells was detected with a 1:100 dilution of Alexa Fluor488-conjugated donkey anti-mouse IgG (ThermoFisher catalog number A21202). Cells were then washed twice in FACS buffer, re-suspended in FACS buffer and the binding of anti-ALK2 antibodies determined by flow cytometry using a DxP6 flow cytometer (Cytek).

[6] = biological target: T2, mouse ALK2 expressed on the cell …; test: cell-based or functional assay

| Binder | Kd [1] | koff [1] | kon [1] | Kd [2] | koff [2] | kon [2] | Kd [3] | koff [3] | kon [3] | binding result [4] | binding result [5] | IC50, BRE-luciferase reporter assay in C2C12 cells stimulated with BMP9 [6] |
| --- | --- | --- | --- | --- | --- | --- | --- | --- | --- | --- | --- | --- |
| JAB0481 (antibody, mouse IgG1, kappa, Murine IgG1/kappa; also called antibody JAB0481; parent mAb JAB0481) heavy: EVQLQQSGAELVRPGASVRLSCTASGFNIKDSLMHWVKQRPEQGLEWIGWIDPEDGETKYAPNFQDKATITAVTSSNTAYLQLSSLTSEDSAIYYCARYTSDYYTMDYWGQGTSVTVSSAKTTPPSVYPLAPGSAAQTNSMVTLGCLVKGYFPEPVTVTWNSGSLSSGVHTFPAVLQSDLYTLSSSVTVPSSTWPSQTVTCNVAHPASSTKVDKKIVPRDCGCKPCICTVPEVSSVFIFPPKPKDVLTITLTPKVTCVVVDISKDDPEVQFSWFVDDVEVHTAQTKPREEQINSTFRSVSELPIMHQDWLNGKEFKCRVNSAAFPAPIEKTISKTKGRPKAPQVYTIPPPKEQMAKDKVSLTCMITNFFPEDITVEWQWNGQPAENYKNTQPIMDTDGSYFVYSKLNVQKSNWEAGNTFTCSVLHEGLHNHHTEKSLSHSPGK light: DIQMTQSPASQSASLGESVTFTCLASQTIGTWLAWYQQKPGKSPQLLIYAATSLADGVPSRFSGSGSGTKFSFKISSLQAEDFASYYCQQLYSTPWTFGGGTKLEIKRADAAPTVSIFPPSSEQLTSGGASVVCFLNNFYPKDINVKWKIDGSERQNGVLNSWTDQDSKDSTYSMSSTLTLTKDEYERHNSYTCEATHKTSTSPIVKSFNRNEC | 0.132 µM | 0.00516 s⁻¹ | 39100 M⁻¹ s⁻¹ | 0.0727 µM | 0.00467 s⁻¹ | 64200 M⁻¹ s⁻¹ | 0.155 µM | 0.00833 s⁻¹ | 53600 M⁻¹ s⁻¹ | no binding (tested: 10 ug/mL) | binds | – |
| JAB0399 (antibody, mouse IgG1, kappa, Murine IgG1/kappa mAb from phage library; also called antibody JAB0399; mAb JAB0399) heavy: EVQLQQSGAELVRPGASVRLSCTASGFNIKDSLMHWVKQRPEQGLEWIGWIDPEDGETKYAPNFQDKATITAVTSSNTAYLQLSSLTSEDSAIYYCARYTSDYYTMDYWGQGTSVTVSSAKTTPPSVYPLAPGFAAQTNSMVTLGCLVKGYFPEPVTVTWNSGSLSSGVHTFPAVLQSDLYTLSSSVTVPSSTWPSQTVTCNVAHPASSTKVDKKIVPRDCGCKPCICTVPEVSSVFIFPPKPKDVLTITLTPKVTCVVVDISKDDPEVQFSWFVDDVEVHTAQTKPREEQINSTFRSVSELPIMHQDWLNGKEFKCRVNSAAFPAPIEKTISKTKGRPKAPQVYTIPPPKEQMAKDKVSLTCMITNFFPEDITVEWQWNGQPAENYKNTQPIMDTDGSYFVYSKLNVQKSNWEAGNTFTCSVLHEGLHNHHTEKSLSHSPGK light: DIQMTQSPASQSASLGESVTFTCLASQTIGTWLAWYQQKPGKSPQLLIYAATSLADGVPSRFSGSGSGTKFSFKISSLQAEDFASYYCQQLYSTPWTFGGGTKLEIKRADAAPTVSIFPPSSEQLTSGGASVVCFLNNFYPKDINVKWKIDGSERQNGVLNSWTDQDSKDSTYSMSSTLTLTKDEYERHNSYTCEATHKTSTSPIVKSFNRNEC | – | – | – | – | – | – | – | – | – | no binding (tested: 10 ug/mL) | – | – |
| JAB0501 (antibody, mouse IgG1, kappa, V domains shown) VH: EVQLQQSGAELVRPGASVRLSCTASGFNIKDSLMHWVKQRPEQGLEWIGWIDPEDGETKYAPNFQSKATITAVTSSNTAYLQLSSLTSEDSAIYYCARYTSPYYTMDYWGQGTSVTVSS VL: DIQMTQSPASQSASLGESVTFTCLASQTIGTWLAWYQQKPGKSPQLLIYAATSLADGVPSRFSGSGSGTKFSFKISSLQAEDFASYYCQQVYSTPWTFGGGTKLEIKR | 0.0245 µM | 0.000929 s⁻¹ | 37900 M⁻¹ s⁻¹ | – | – | – | – | – | – | – | – | 0.000204 µM |
| JAB0505 (antibody, mouse IgG1, kappa, V domains shown, also called antibody JAB0505) VH: EVQLQQSGAELVRPGASVRLSCTASGFNIKDSLMHWVKQRPEQGLEWIGWIDPEDGETRYAPNFQDKATITAVTSSNTAYLQLSSLTSEDSAIYYCARYTSRYYTMEYWGQGTSVTVSS VL: DIQMTQSPASQSASLGESVTFTCLASQTIGTWLAWYQQKPGKSPQLLIYAATSLADGVPSRFSGSGSGTKFSFKISSLQAEDFASYYCQQLYWTPWTFGGGTKLEIKR | 0.0208 µM | 0.000839 s⁻¹ | 40300 M⁻¹ s⁻¹ | – | – | – | – | – | – | – | – | 0.000139 µM |
